This note sets out measurements from US20210269532A1.

Usually EC50 (read off the curve) stands for the midpoint of the concentration-response curve. A high value points to a need for much substance.

The target of experiment [1] is human AXL extracellular domain transiently expressed on CHO-S cells (human) (UniProt P30530). The experiment is described as follows: flow cytometry, serial dilution on CHO-S cells transiently expressing human AXL ECD, AF647 anti-human IgG secondary, GeoMean (RL1-H). On the technique in general: Flow cytometry measures light scatter and fluorescence of single cells or particles in a stream.
Chain of human AXL extracellular domain transiently expressed on CHO-S cells (human) (P30530 26-451 limits assumed): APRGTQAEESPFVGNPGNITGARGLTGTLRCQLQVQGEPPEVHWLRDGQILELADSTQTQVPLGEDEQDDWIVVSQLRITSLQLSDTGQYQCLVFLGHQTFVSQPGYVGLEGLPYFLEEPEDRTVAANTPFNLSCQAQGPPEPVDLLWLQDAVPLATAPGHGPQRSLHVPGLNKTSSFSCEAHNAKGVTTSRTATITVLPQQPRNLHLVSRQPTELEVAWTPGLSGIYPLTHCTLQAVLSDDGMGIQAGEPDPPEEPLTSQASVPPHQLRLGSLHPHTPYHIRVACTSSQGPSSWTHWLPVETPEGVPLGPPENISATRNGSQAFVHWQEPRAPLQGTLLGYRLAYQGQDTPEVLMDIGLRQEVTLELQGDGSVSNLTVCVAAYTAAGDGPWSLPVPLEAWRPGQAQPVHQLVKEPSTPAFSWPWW

Experiment [2] has as its target cynomolgus AXL extracellular domain transiently expressed on CHO-S cells (cynomolgus). The experiment is described as follows: flow cytometry, serial dilution on CHO-S cells transiently expressing cynomolgus AXL ECD, AF647 anti-human IgG secondary, GeoMean (RL1-H).
Experiment [3] addresses His-tagged human AXL extracellular domain (recombinant) (human) (UniProt P30530). In words: SPR classical sandwich assay (IBIS MX96): 100 nM analyte over AXL-His ECD held by surface-captured 22883; white cell = sandwiching.
For experiment [4] the target is unchanged. In words: SPR classical sandwich assay (IBIS MX96): 100 nM analyte over AXL-His ECD held by surface-captured 22995; white cell = sandwiching.
Experiment [5] has the same target. In words: SPR classical sandwich assay (IBIS MX96): 100 nM analyte over AXL-His ECD held by surface-captured 23203-1; white cell = sandwiching.
For experiment [6] the target is unchanged. In words: SPR classical sandwich assay (IBIS MX96): 100 nM analyte over AXL-His ECD held by surface-captured 10G5 analogue; white cell = sandwiching.
The target is the same in experiment [7]. The experiment is described as follows: SPR classical sandwich assay (IBIS MX96): 100 nM analyte over AXL-His ECD held by the surface-captured Control antibody (f2); white cell = sandwiching.
The target is the same in experiment [8]. In words: SPR classical sandwich assay (IBIS MX96): 100 nM analyte over AXL-His ECD held by surface-captured YW327.6S2 IgG1-LALA analogue; grey cell = blocked (self).

Chain of YW327.6S2 IgG1-LALA analogue (Genentech) (antibody) (VH): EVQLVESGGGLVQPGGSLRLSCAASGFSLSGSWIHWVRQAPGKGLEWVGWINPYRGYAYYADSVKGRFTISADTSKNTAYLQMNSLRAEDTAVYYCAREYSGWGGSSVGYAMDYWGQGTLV
Chain of YW327.6S2 IgG1-LALA analogue (Genentech) (antibody) (VL): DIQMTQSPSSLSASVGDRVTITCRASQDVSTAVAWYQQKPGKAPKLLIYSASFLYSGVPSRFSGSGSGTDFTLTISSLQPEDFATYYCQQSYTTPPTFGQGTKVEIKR
Chain of His-tagged human AXL extracellular domain (recombinant) (human) (P30530 26-451): as the sequence (P30530 26-451 limits assumed) above

On to “10G5 IgG1-LALA analogue (BerGenBio) (antibody)”, for which the concentration giving a half-maximal response (EC50 (read off the curve)) in experiment [1] came to 0.006 µg/mL; in experiment [2] it was 0.008 µg/mL.
For “Ax225 IgG1-LALA analogue (Chugai) (antibody)” the same measures were 0.06 µg/mL and 0.05 µg/mL.
On to “YW327.6S2 IgG1-LALA analogue (Genentech) (antibody)”, for which the normalized SPR sandwich response was found to be 3.9 in experiment [3]; 1.1 in experiment [4]; 1.1 in experiment [5]; 1.2 in experiment [6]; 1.3 in experiment [7]; 0 in experiment [8].
